Test results taken from patent US20030157090A1 (published 2003).

B1: scFv(CMV-4G) (scFv)
scFv: QVQLQESGGDLVQPGGSLKLSCAASGFTFSSYGMSWVRQTPDKRLELVATINSNGGSTFYPDSVKGRFTISRDNAKNTLYLQMSSLKSEDTAMYYCARNNWSFDYWGQGTTVTVSSGGGGSGGGGSGGGGSDIELTQSPASLAVSLGQRATISCRASESVHNYMHWYQQKPGQPPKLLIYRALNLESGIPARFSGSGSRTDFTLTINPVEADDVATYYCQQGQRKPWTFGGGTKLEIKR
B2: scFv(CMV-4B) (scFv)
scFv: QVQLQESGGDLVQPGGSLKLSCAASGFTFSSYGMSWVRQTPDKRLELVATINSNGGSTFYPDSVKGRFTISRDNAKNTLYLQMSSLKSEDTAMYYCARNNYSFDYWGQGTTVTVSSGGGGSGGGGSGGGGSDIELTQSPASLAVSLGQRATISCRASESVHNYMHWYQQKPGQPPKLLIYRALNLESGIPARFSGSGSRTDFTLTINPVEADDVATYYCQQGRRAPWTFGGGTKLEIKR
B3: scFv(LYS-11E) (scFv)
scFv: QVQLQESGGDLVQPGGSLKLSCAASGFTFSSYGMSWVRQTPDKRLELVATINSNGGSTFYPDSVKGRFTISRDNAKNTLYLQMSSLKSEDTAMYYCARTRPYFDYWGQGTTVTVSSGGGGSGGGGSGGGGSDIELTQSPASLAVSLGQRATISCRASESVHNYMHWYQQKPGQPPKLLIYRALNLESGIPARFSGSGSRTDFTLTINPVEADDVATYYCQQVTYKPWTFGGGTKLEIKR
notes: also called scFv(HEL-11E)
B4: scFv(P5) (scFv)
scFv: QVQLQESGGDLVQPGGSLKLSCAVSGFSLTGYGVNWVRQTPDKRLEWVAMIWGDGNTDYNSSVKGRFTISKDNAKSTVYLQMSSLKSEDTAMYYCARERDYRLDYWGQGTTVTVSSGGGGSGGGGSGGGGSDIELTQSPASLAVSLGQRATISCRASGNIHNYLAWYQQKPGQPPKLLIYYTTTLADGIPARFSGSGSGTDYTLTINPVEADDVATYYCQHFWSTPRTFGGGTKLEIKR
notes: Last product of mutagenesis, with the highest number of substitutions; also called P5 mutant; LYS/P5

Assays:
[1] = target: cucumber mosaic virus (CMV), purified (cucumber mosaic virus); test: SPR (BIAcoreX), purified CMV amine-coupled to a CM5 chip, scFv in flow; kD=koff/kon
[2] = target: T1, lysozyme (Sigma) (chicken, UniProt P00698 19-147); test: column 'Specificity' of Table I; clone selected from the monoscaffold phage library and screened by ELISA
T1 construct: also called lysozime; Lisozyme

[3] = target: T1, lysozyme (Sigma); test: ELISA on coated lysozyme, E. coli periplasmic extracts normalized for total protein

T1 sequence (P00698 19-147): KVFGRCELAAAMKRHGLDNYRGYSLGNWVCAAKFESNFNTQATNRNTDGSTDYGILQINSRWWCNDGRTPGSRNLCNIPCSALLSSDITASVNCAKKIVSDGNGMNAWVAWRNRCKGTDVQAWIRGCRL

| Binder | Kd [1] [nM] | also measured |
| --- | --- | --- |
| B1 | 60 | – |
| B2 | 10 | – |
| B3 | – | binding result [2]: binds |
| B4 | – | binding result [3]: binds |
